Target: T1, murine ITK (endogenous, mouse thymocytes and CD4 T cells) (mouse, UniProt Q03526 1-625)
T1 construct: Endogenous protein of BALB/c mouse cells; also called endogenous ITK
T1 sequence: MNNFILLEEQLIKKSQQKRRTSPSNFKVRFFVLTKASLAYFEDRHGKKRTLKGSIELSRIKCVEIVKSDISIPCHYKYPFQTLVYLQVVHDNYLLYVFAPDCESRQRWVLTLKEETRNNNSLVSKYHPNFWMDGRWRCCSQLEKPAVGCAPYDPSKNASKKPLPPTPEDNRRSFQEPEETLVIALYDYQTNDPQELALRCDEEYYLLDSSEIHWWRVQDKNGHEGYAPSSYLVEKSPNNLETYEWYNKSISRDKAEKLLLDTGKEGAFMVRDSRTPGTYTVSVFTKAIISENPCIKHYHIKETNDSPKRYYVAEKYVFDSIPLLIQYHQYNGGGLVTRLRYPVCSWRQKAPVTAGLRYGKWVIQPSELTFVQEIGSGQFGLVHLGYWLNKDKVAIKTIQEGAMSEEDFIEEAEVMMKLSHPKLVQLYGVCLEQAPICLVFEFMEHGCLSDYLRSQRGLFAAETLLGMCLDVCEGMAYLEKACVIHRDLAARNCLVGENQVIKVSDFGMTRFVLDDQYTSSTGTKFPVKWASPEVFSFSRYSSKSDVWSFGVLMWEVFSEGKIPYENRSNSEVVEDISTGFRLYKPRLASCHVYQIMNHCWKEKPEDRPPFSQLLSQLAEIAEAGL
Assay: IP of T-bet (4B10) from mouse thymocyte nuclear extracts, anti-ITK (2F12) blot
Protocol: Most important, it was determined whether ITK interacted with T-bet under physiological conditions, by determining endogenous association in primary thymocytes. Single cell suspensions were obtained from thymi of BALB/c wt, T-bet^{-/-} and ITK−/− mice and nuclear extracts were prepared with NE-PER (Pierce, Rockford) according to the manufacturer's instructions. Two mg of nuclear extracts were incubated with anti-T-bet mAb, 4B10, in 150 mM NaCl. Immune complexes were resolved and probed with anti-ITK mAb (2F12), and sequentially with 4B10 after stripping. ITK expression was assayed in 30 μg of nuclear extracts. Initial attempts to perform coimmunoprecipitation experiments in naïve Thp cells 24 and 48 hours after TCR stimulation failed, likely secondary to both the low levels of endogenous T-bet expressed at this early time point and the competing processes of phosphorylation and dephosphorylation occurring in activated cells.

binding result: binds
B1: murine T-bet (endogenous, mouse thymocytes and Thp cells) (other, UniProt Q9JKD8 1-530, looked up)
chain: MGIVEPGCGDMLTGTEPMPSDEGRGPGADQQHRFFYPEPGAQDPTDRRAGSSLGTPYSGGALVPAAPGRFLGSFAYPPRAQVAGFPGPGEFFPPPAGAEGYPPVDGYPAPDPRAGLYPGPREDYALPAGLEVSGKLRVALSNHLLWSKFNQHQTEMIITKQGRRMFPFLSFTVAGLEPTSHYRMFVDVVLVDQHHWRYQSGKWVQCGKAEGSMPGNRLYVHPDSPNTGAHWMRQEVSFGKLKLTNNKGASNNVTQMIVLQSLHKYQPRLHIVEVNDGEPEAACSASNTHVFTFQETQFIAVTAYQNAEITQLKIDNNPFAKGFRENFESMYASVDTSVPSPPGPNCQLLGGDPFSPLLSNQYPVPSRFYPDLPGQPKDMISQPYWLGTPREHSYEAEFRAVSMKPTLLPSAPGPTVPYYRGQDVLAPGAGWPVAPQYPPKMSPAGWFRPMRTLPMDPGLGSSEEQGSSPSLWPEVTSLQPEPSDSGLGEGDTKRRRISPYPSSGDSSSPAGAPSPFDKETEGQFYNYFPN
notes: mature; Endogenous protein in nuclear extracts; also called endogenous T-bet
